The values that follow come from article PMC11786912 (Computational and Structural Biotechnology Journal, 2025).

Where a chain is given by its changes, count along the chain named. Ends that are not written are not given here. * marks the point of attachment. Biotin = O=C1N[C@H]2[C@H](CS[C@H]2CCCCC(=O)*)N1; Ahx = NCCCCCC(=O)O

In test [1] the target is T1, biotinylated CD99 peptide target epitope (Biotin-Ahx-AVVDGENDDPRPPNP) (Homo sapiens (synthetic peptide)).
T1 chain: {Biotin-Ahx}-AVVDGENDDPRPPNP
Put plainly: BLI. (In general: Biolayer interferometry detects binding as a change in optical thickness at a sensor tip.)

Test [2] has as its target CD99 on the surface of Jurkat T cells (Homo sapiens (Jurkat, endogenous), UniProt P14209). Put plainly: flow cytometry on cells. (A flow cytometer gives signals particle by particle.)

Chain of CD99 on the surface of Jurkat T cells (P14209 23-185): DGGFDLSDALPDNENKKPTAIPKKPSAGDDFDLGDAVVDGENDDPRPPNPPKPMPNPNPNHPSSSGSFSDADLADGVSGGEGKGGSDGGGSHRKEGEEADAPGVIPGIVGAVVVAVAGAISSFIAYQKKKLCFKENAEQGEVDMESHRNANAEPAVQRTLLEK

B1: HuScFvMT99/3^BP (His6X) (scFv, V domains shown)
VH: QVQLQESGPGLVKPSETLSLTCTVSGGSIKDTYIHWVRQPPGKGLEWIGRIDPGNGNIKYDPKFQGRATISADTSKNQVSLNLDSVTAADTAIYYCARSGGYDFDYWGQGTLVTVSS
VL: VLMTQSPSSLSASVGDRVTITCRSSQSLVHSNGNTYLHWYQQKPGQSPKLLIYTVSNRFSGVPDRFSGSGSGTDFTLTISSLQAEDVAVYYCSQSTYVPYTFGPGTKVDIK
On to B1, for which, in test [1], the Kd was determined as 264 nM. Moreover, the binding result in test [2] was “binds”.

B2: HuScFvMT99/3^HY (His6X) (scFv, V domains shown)
VH: B1 VH
VL: B1 VL with L2Q, Q46K, S47A, D64S, L77F, A84P, V87I, V89T, Y91F
For the molecule B2, binding in test [1] was characterised by a dissociation constant (Kd) of 395 nM. In test [2], the binding result is given as “binds”.

B3: HuScFvMT99/3^WT (His6X) (scFv, V domains shown)
VH: B1 VH with V24L, G27F, S28N, T87S, Q109K, T111S, L112T
VL: B1 VL with L2Q, Q46K, S47A, D64S, L77F, A84P, V87I, V89T, Y91F
As for B3, the Kd in test [1] was found to be 135 nM.

One may read the Kd as the constant that tells how readily two partners part at equilibrium.
